Results published in patent US20220268788A1.
bromoacetamide scaffold with biotin = not defined here

Tests used:
Experiment in all cases: immunoprecipitation with HCDR3 construct, number of peptides identified by mass spectrometry
[1] = biological target: T1, Succinate--CoA ligase [ADP-forming] subunit beta, mitochondrial (mouse) (UniProt Q9Z2I9)
T1 sequence (looked up): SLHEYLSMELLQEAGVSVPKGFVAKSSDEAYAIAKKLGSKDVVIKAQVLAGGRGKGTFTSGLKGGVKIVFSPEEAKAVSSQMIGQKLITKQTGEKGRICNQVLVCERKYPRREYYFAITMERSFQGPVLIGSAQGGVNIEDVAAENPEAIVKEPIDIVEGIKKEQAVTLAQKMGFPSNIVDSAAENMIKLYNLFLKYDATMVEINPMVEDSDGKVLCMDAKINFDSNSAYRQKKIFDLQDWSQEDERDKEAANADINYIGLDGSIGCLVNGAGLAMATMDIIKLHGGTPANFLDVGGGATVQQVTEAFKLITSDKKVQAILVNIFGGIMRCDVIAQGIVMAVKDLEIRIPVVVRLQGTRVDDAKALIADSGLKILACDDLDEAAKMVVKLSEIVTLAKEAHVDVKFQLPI

[2] = biological target: T2, citrate synthase, mitochondrial (mouse) (UniProt Q9CZU6)
T2 sequence (looked up): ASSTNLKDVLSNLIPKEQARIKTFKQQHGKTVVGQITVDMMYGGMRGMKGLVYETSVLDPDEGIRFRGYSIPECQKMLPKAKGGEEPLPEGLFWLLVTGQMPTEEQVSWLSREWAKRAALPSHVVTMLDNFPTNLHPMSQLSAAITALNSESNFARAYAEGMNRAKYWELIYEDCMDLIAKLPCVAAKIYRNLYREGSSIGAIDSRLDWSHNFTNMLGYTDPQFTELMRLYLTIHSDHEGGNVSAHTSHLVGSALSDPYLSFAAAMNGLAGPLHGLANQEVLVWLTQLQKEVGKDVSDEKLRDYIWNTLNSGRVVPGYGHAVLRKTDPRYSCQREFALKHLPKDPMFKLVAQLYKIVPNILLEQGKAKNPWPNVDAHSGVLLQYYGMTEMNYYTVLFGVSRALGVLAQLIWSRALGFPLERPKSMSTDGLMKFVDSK

[3] = biological target: Heat shock cognate 71 kDa protein (mouse) (UniProt P63017)
[4] = biological target: 78 kDa glucose-regulated protein (mouse) (UniProt P20029)
Chain of 78 kDa glucose-regulated protein (mouse) (P20029 20-655 limits assumed): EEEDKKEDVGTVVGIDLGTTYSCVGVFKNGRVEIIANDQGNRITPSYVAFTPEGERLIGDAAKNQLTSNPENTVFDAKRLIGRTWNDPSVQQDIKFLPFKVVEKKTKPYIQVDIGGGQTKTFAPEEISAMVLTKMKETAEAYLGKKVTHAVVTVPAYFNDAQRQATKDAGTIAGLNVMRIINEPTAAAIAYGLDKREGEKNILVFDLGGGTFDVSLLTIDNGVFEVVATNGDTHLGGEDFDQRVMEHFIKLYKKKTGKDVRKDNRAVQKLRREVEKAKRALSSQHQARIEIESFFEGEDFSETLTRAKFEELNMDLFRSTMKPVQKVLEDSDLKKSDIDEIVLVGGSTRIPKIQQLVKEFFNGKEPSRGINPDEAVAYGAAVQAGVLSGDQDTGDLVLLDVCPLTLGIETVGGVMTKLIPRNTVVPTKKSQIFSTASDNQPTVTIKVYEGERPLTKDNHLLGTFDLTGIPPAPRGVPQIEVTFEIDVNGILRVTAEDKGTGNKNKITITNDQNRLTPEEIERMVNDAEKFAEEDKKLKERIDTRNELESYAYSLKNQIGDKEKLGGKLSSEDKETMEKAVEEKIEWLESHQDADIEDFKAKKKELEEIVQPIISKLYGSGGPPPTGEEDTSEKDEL

Chain of Heat shock cognate 71 kDa protein (mouse) (P63017 2-646 limits assumed): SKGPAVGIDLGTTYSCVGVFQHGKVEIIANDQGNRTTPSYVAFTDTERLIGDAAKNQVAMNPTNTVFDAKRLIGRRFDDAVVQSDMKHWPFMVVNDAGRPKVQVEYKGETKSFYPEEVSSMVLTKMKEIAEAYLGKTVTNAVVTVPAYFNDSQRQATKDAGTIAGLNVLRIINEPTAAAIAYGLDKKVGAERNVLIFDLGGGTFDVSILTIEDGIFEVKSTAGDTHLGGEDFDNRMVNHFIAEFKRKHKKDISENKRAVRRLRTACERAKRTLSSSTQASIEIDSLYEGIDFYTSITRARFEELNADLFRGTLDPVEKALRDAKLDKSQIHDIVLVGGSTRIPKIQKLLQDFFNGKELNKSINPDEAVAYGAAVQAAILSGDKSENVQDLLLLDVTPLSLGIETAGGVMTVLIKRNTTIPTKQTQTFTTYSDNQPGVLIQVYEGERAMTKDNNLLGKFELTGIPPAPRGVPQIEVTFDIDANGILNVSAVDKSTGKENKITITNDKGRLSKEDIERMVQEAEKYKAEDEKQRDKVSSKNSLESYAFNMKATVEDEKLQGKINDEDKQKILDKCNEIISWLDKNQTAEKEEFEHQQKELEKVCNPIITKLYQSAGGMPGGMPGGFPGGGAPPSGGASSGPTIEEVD

B1: Acute-2 construct (A2), biotinylated cyclic HCDR3 construct (peptide, part only; not given: biotin scaffold, part only)
peptide: Ac-SLYGSSRHTAPISF-NH2
modifications: linker (positions not given here) via bromoacetamide scaffold with biotin; reading uncertain; also: biotinylated bromoacetamide scaffold cyclization, attachment sites not given here
- # Peptides [1]: 4 peptides
- # Peptides [2]: 3 peptides

B2: subacute-1 construct (SA1), biotinylated cyclic HCDR3 construct (peptide, part only; not given: biotin scaffold, part only)
peptide: Ac-TDLAVAHPVRY-NH2
modifications: linker (positions not given here) via bromoacetamide scaffold with biotin; reading uncertain; also: biotinylated bromoacetamide scaffold cyclization, attachment sites not given here
- # Peptides [3]: 6 peptides
- # Peptides [4]: 6 peptides
